Results reported in article PMC10191836 (2023).

T1: C-terminal region of human LTBP-1 (human, UniProt Q14766 1347-1721)
T1 chain: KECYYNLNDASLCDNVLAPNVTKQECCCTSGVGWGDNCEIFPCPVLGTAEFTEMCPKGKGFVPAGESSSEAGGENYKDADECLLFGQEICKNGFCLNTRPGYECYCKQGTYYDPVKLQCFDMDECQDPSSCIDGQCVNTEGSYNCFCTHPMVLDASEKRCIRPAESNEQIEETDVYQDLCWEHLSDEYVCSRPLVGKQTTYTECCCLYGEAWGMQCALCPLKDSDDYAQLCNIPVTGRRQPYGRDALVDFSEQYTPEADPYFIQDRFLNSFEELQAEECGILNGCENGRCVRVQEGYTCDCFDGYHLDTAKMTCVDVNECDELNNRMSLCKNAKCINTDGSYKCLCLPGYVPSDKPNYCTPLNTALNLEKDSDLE

B1: recombinant human fibrillin-1 N-terminal fragment PF3 (domain or fragment)
chain: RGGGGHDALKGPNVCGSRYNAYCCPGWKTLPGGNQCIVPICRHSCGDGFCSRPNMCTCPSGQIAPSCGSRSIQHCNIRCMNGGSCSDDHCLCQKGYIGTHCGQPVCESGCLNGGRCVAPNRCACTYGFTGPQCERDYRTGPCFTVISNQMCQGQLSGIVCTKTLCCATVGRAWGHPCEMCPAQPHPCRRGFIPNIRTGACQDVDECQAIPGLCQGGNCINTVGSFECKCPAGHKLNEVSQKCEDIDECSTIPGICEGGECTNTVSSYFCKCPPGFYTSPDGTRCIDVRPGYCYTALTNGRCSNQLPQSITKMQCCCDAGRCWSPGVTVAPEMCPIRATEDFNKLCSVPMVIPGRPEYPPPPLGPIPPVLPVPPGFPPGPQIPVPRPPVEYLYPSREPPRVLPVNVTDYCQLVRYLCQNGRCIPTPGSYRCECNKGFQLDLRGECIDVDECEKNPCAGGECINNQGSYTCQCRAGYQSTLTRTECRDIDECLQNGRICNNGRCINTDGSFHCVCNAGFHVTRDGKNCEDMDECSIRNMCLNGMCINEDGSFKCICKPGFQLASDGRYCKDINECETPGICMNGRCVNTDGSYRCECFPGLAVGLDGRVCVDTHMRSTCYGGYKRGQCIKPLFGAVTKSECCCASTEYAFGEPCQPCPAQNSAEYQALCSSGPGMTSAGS
B2: recombinant human fibrillin-1 N-terminal fragment PF3 with the WMS deletion (domains TB1–PRR–EGF4) (domain or fragment)
chain: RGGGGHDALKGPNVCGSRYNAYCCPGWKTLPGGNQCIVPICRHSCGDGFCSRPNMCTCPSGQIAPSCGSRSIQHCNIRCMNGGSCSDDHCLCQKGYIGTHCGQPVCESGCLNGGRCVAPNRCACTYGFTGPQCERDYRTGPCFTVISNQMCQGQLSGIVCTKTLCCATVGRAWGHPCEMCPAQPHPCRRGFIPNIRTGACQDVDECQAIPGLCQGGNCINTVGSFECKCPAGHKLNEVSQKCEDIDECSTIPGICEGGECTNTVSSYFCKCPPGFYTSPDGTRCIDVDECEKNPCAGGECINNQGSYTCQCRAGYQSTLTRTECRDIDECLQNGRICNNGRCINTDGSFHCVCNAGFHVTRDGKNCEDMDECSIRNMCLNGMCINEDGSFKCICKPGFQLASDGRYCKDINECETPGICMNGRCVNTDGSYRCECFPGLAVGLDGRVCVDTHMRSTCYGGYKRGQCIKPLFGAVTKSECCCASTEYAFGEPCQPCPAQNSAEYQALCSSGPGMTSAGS
modifications: Calcium bound to the cbEGF domains; disulfide bonded. The PF3 end is not printed: it is taken as the end of TB2 (722), because the paper's fragment boundaries are at 330 and 723. The WMS deletion TB1-PRR-EGF4 is taken as 330-489 from domain limits. The N-terminus is assumed to be processed at 44/45.

Target: T1, C-terminal region of human LTBP-1
Assay: SPR

| Binder | Kd [nM] |
| --- | --- |
| B1 | 17.7 |
| B2 | 50.1 |
